Laboratory results as given in patent US20240132563A1 (BRIGHT PEAK THERAPEUTICS, published 2024).
Positions of bridges follow the written chain, without caps; N, C: chain ends. Non-standard residues stand in square brackets, D forms with d. Chains are numbered I, II in the order given. Ygp = tyrosine with amino-capped PEG8; Yn3 = tyrosine with azide-capped PEG9; hSer = N[C@@H](CCO)C(=O)O; Nle = CCCC[C@H](N)C(=O)O

T1: IL-2Rβγ on HEK-Blue IL2Rβγ reporter cells (UniProt P14784 27-551; P31785 23-369)
T1 sequence (looked up) 1: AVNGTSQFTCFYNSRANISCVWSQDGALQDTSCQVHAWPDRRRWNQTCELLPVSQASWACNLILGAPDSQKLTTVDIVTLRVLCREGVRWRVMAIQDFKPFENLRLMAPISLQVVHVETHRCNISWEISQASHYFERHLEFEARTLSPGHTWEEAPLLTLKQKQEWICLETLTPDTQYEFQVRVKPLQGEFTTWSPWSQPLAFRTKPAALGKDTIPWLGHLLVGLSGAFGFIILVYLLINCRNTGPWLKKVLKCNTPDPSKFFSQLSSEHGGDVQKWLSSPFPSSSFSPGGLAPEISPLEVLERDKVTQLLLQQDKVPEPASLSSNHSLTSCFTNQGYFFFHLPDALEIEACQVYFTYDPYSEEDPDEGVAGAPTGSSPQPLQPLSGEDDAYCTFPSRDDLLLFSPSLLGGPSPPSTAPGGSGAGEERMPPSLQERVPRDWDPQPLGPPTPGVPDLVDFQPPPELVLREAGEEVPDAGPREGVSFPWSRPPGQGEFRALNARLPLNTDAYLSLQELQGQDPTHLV
T1 sequence (looked up) 2: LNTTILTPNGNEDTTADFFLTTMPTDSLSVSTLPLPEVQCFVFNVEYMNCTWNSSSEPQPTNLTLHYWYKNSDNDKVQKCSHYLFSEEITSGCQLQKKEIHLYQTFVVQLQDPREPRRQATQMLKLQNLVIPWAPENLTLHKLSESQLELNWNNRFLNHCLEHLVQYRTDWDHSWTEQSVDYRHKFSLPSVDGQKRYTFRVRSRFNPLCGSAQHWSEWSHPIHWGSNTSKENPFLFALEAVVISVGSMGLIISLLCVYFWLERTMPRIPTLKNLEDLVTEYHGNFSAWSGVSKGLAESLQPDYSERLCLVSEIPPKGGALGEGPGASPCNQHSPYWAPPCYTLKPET

T2: IL-2Rβ (CD122), avi-tagged (UniProt P14784 27-239, limits assumed)
T2 construct: BLI ligand printed as 'CD122 (avi)'; also called IL-2 receptor beta subunit
T2 sequence (looked up): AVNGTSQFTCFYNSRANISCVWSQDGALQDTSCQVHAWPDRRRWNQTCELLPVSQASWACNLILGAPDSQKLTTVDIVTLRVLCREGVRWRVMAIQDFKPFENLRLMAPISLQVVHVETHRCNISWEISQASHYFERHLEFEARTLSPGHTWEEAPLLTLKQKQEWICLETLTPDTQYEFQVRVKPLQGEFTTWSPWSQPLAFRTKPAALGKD

T3: IL-18R on HEK-Blue IL18R reporter cells (UniProt Q13478 19-541; O95256 20-599, limits assumed)
T3 sequence (looked up) 1: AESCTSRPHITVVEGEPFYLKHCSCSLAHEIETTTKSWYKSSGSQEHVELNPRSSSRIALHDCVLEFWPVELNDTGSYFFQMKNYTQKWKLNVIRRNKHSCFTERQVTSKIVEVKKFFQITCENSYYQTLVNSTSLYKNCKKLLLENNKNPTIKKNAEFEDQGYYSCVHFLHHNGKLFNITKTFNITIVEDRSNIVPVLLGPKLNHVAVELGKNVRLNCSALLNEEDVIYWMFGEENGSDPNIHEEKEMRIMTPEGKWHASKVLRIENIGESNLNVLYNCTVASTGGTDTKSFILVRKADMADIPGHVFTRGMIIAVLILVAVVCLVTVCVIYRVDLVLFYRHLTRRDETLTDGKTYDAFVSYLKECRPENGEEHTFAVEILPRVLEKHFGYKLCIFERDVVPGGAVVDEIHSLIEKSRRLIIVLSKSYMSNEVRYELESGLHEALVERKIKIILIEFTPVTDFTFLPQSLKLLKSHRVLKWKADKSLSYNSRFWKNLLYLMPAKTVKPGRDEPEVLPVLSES
T3 sequence (looked up) 2: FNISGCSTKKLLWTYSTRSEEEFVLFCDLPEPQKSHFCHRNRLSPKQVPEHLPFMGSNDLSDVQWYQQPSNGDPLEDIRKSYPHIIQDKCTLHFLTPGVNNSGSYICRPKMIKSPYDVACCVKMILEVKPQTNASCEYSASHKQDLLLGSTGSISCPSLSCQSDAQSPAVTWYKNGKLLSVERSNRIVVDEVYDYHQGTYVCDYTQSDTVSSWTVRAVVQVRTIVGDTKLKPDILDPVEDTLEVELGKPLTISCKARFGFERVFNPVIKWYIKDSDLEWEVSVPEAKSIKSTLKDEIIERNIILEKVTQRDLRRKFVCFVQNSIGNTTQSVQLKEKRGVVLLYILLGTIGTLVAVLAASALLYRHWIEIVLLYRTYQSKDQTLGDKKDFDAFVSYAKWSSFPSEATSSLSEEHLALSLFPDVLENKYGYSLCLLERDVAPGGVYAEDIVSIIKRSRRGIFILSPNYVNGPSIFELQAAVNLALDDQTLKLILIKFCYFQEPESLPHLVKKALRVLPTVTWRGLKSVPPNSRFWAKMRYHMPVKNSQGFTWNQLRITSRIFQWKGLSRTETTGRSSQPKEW

T4: CD218a (IL-18 receptor alpha subunit), avi-tagged (UniProt Q13478 19-329, limits assumed)
T4 construct: BLI ligand printed as 'CD218a (avi)'; also called CD218a (avi); IL-18Rα
T4 sequence (looked up): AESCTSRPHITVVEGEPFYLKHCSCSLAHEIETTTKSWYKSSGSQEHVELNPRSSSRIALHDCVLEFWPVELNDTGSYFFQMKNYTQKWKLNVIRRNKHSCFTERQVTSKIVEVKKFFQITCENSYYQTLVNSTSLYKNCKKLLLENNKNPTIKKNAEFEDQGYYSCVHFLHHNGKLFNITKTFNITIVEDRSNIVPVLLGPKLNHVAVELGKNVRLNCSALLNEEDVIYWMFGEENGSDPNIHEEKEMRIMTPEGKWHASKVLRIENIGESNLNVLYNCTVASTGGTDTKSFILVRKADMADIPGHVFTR

B1: IL-2 polypeptide of SEQ ID NO: 300 (ligand)
chain: APTSSSTKKTQLQLEHLLLDLQ[Nle]ILNGINNYKNPKLTR[Nle]L[hSer][Yn3]KF[Ygp][Nle]PKKATELKHLQCLEEELKPLEEVL[hSer]LAQSKNFHLRPRDLISNINVIVLELKGSETTF[hSer]CEYADETATIVEFLNRWITFSQSIISTLT
modifications: ends and bridges not checked
notes: Synthetic modified IL-2
B2: IL-18 polypeptide of SEQ ID NO: 30 (E6K, V11I, C38A, K53A, T63A, C76A, C127A) (ligand)
chain: YFGKLKSKLSIIRNLNDQVLFIDQGNRPLFEDMTDSDARDNAPRTIFIISMYADSQPRGMAVAISVKCEKISTLSAENKIISFKEMNPPDNIKDTKSDIIFFQRSVPGHDNKMQFESSSYEGYFLAAEKERDLFKLILKKEDELGDRSIMFTVQNED
notes: also called C086
B3: Bifunctional cytokine Composition 4 (IL-18 SEQ ID NO: 30, linker 004, IL-2 SEQ ID NO: 300) (other)
chain 1: YFGKLKSKLSIIRNLNDQVLFIDQGNRPLFEDMTDSDARDNAPRTIFIISMYADSQPRGMAVAISVKCEKISTLSAENKIISFKEMNPPDNIKDTKSDIIFFQRSVPGHDNKMQFESSSYEGYFLAAEKERDLFKLILKKEDELGDRSIMFTVQNED
chain 2: APTSSSTKKTQLQLEHLLLDLQ[Nle]ILNGINNYKNPKLTR[Nle]L[hSer][Yn3]KF[Ygp][Nle]PKKATELKHLQCLEEELKPLEEVL[hSer]LAQSKNFHLRPRDLISNINVIVLELKGSETTF[hSer]CEYADETATIVEFLNRWITFSQSIISTLT
modifications: linker I:68-II:42 via linker 004 (SulfoDBCO-Maleimide) (inferred); ends not checked
notes: Two cytokines joined by a chemical (non-peptide) linker
B4: Bifunctional cytokine Composition 3 (IL-18 SEQ ID NO: 30, linker 006, IL-2 SEQ ID NO: 300) (other)
chain 1: YFGKLKSKLSIIRNLNDQVLFIDQGNRPLFEDMTDSDARDNAPRTIFIISMYADSQPRGMAVAISVKCEKISTLSAENKIISFKEMNPPDNIKDTKSDIIFFQRSVPGHDNKMQFESSSYEGYFLAAEKERDLFKLILKKEDELGDRSIMFTVQNED
chain 2: APTSSSTKKTQLQLEHLLLDLQ[Nle]ILNGINNYKNPKLTR[Nle]L[hSer][Yn3]KF[Ygp][Nle]PKKATELKHLQCLEEELKPLEEVL[hSer]LAQSKNFHLRPRDLISNINVIVLELKGSETTF[hSer]CEYADETATIVEFLNRWITFSQSIISTLT
modifications: linker I:68-II:42 via linker 006 (SulfoDBCO-PEG24-Maleimide) (inferred); ends not checked
notes: as for B3

Tests used:
[1] = target: T1, IL-2Rβγ on HEK-Blue IL2Rβγ reporter …; test: cell-based or functional assay
[2] = target: T2, IL-2Rβ (CD122), avi-tagged; test: BLI; ligand CD122 (avi)
[3] = target: T3, IL-18R on HEK-Blue IL18R reporter cells; test: cell-based or functional assay
[4] = target: T4, CD218a (IL-18 receptor alpha subunit), …; test: BLI; ligand CD218a (avi)

| Binder | EC50, HEK-Blue IL2Rβγ reporter assay [1] | Kd [2] | koff [2] | kon [2] | EC50, HEK-Blue IL18R reporter assay [3] | Kd [4] | koff [4] | kon [4] |
| --- | --- | --- | --- | --- | --- | --- | --- | --- |
| B1 | 4 pM | 206 nM | 0.102 s⁻¹ | 493000 M⁻¹ s⁻¹ |  |  |  |  |
| B2 |  |  |  |  | 0.067 pM | 26.1 nM | 0.0567 s⁻¹ | 2.17e+06 M⁻¹ s⁻¹ |
| B3 | 50 pM | 148 nM | 0.0863 s⁻¹ | 585000 M⁻¹ s⁻¹ | 1.48 pM | 66.4 nM | 0.0708 s⁻¹ | 1.07e+06 M⁻¹ s⁻¹ |
| B4 | 7 pM | 151 nM | 0.0842 s⁻¹ | 559000 M⁻¹ s⁻¹ | 0.1 pM | 25 nM | 0.0405 s⁻¹ | 1.62e+06 M⁻¹ s⁻¹ |
